From patent US20210337838A1, “RECOMBINANT EXPRESSION OF FUMONISIN AMINE OXIDASE” (priority 2018, published 2021)
Residue numbers refer to the chain shown, from its start. Names and notes keep the numbering of the source.

B1: AnFAO_6142: AnFAO homolog clone, SEQ ID NO: 28, identical to AnFAO_10929; substitutions M46V, R82Q, V267L vs AnFAO_15309 (protein)
chain: MSVSNDPTTKLYDAVIVGAGLSGLQAAHSIQAAGFSVCILEATDRVGGKTLTVKSSEKGYNDLGAAWVNDTNQTEIFKLHQQYGLDGVVQYTCGDDILESGEGVIRKIPYGLPLTGLPKKLLDILRIESSRLDLDDPTSFPGATEVDNLTFRDFCVEKTGSEDVIHITDAISTALLGLNSNELSALYMLYYFKSGSGIDNLLSDERDGAQYLRTRQGTQTIARKMADELTQSDIFLGMPVTSINQTDADAHCVVQTLDGSSFRCRRLIVSIPTTLYRSVSFHPPLPHAKQVLSDHTIMGYYSKVIFIFKEPWWRDAGLTGIVNCAGGPITFTRDTSVPTDDQWSITCFMVGSRGRAWSKLSKDDRYSQVWEQFRRCFEEFVENIPEPVNTLEMEWSKEPYFLGAPCPAMIPGLLTTAGSDLAAPHGKVHFIGTETSTVWRGYMEGAIRAGQRGGAEVVTALQED
modifications: Aspergillus niger
notes: substitutions M46V, R82Q, V267L vs AnFAO_15309
B2: AnFAO_10927: AnFAO homolog clone, SEQ ID NO: 27 (protein)
chain: B1 chain with Q82R, T230S, Q255K, L267V, N323D, C376F, V388A
modifications: Aspergillus niger

What was measured:
[1] = Amplex red assay of AnFAO homolog clones; assay type: biochemical
Text: Seven of the AnFAO homologs were synthesized and cloned into the MBP-TEV vector for recombinant expression in E. coli.

[2] = Circular dichroism thermal denaturation; assay type: physicochemical; settings: 0.3 mg/ml, 20 mM Tris-HCl (pH 7.4), 50 mM NaCl, 0.75 mM DTT, monitored at 222, 20 to 95° C.
Protocol: Activity was measured via reverse-phase LC/MS analysis. […] All proteins were scanned at a concentration of 0.3 mg/ml in buffer containing 20 mM Tris-HCl (pH 7.4), 50 mM NaCl and 0.75 mM DTT. Thermal denaturation was monitored at […] with a temperature scan ranging from 20 to 95° C., increasing by 1° C. per minute with data collection every 30 seconds. Baseline corrected data were converted from millidegrees to mean residue ellipticity, and thermal denaturation curves were produced by nonlinear regression in Graphpad Prism.

Row | Molecule | activity compared to AnFAO_15309 (fold) ([1]; 80 nM enzyme, 25 μM FB1, pH 7) [×] | relative activity ([1]; relative to AnFAO_15309 = 1) | melting temperature [2] [°C] | activity compared to 15309 ([1]; 80 nM enzyme, 25 μM FB1, pH 7) [%]
1 | B1 | 2.5 | (relative activity = 2.5): | 76 | –
2 | B2 | – | – | 76 | 31
